Data published in the nanobody polyreactivity screen of Harvey et al. (2022).

Test: yeast display, Sf9 membrane polyspecificity reagent, FACS + sequencing; frameworks hold sequencing errors
How it was run: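 In a synthetic yeast display library (Saccharomyces cerevisiae BJ5465), nanobody expression was induced with galactose for 36–48 hours. FACS gates were set low and high (top ~1%) using anti-HA fluorescence for expression and streptavidin fluorescence for binding of the Sf9 membrane reagent. Each polyreactivity label is drawn from the gate of origin.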

Sequence | polyreactivity (PSR sort gate)
QVQHVESGGGLVQAGGSLRLSCAASGSLFYGNTMGWARQAPGKERELVAAISNDDSRTYYADSVKGRFTISRDNAKNTVYLQMNSLKPEDTAVYYSATRGYPYRYRQTLNYWGQGTQVTVSS | high polyreactivity
QVQHVESGGGLVQAGGSLRLSCAASGSTFAINAMGGYRQAPGKERELVAAISSSGSTNYADSVKGRFTISRDNAKNTVYLQMNSLKPEDTAVSYCAADRVWGTPQAYVPSQFDYWGQGTQVTVSS | low polyreactivity
QVQHVESGGGLVQAGGSLRLSCAASGSTFDAYAMGWYRQAPGKERELVAAISWSDTTTYYADSVKGRFTISRDTAKNTVYLQMYSLKPEDTAVSYCADEYYFTDGSYTSDYWGPGTQVTVSS | high polyreactivity
QVQHVESGGGLVQAGGSLRLSCAASGSTFFRYAKGWYRQAPGTERELVAAISYSGDSTYYADSVKGRFTISRDNAKNTVYLQMNSLKPEDSAVYYCNAVYFRYRYNYWGQGTQVTVSS | high polyreactivity
QVQHVESGGGLVQAGGSLRLSCAASGSTFGRYGMGWYRQAPGTERELVAAISRGGGTNYADSVKGRFTISRDNAKKTVYLQMNSLKPEDTAVYYCNARWYYALYDYWGQGTQVTVSS | low polyreactivity
QVQHVESGGGLVQAGGSLRLSCAASGSTFGWYAMGWYRQAPGKVRELVAAITRRGTRTYYADSVKGRFTISRDNAKNTVYLQMNSLKPEDTAVYYCNARGFPGKFGYWGQGTQVTVSS | high polyreactivity
QVQHVESGGGLVQAGGSLRLSCAASGSTFHLYAIGWYRQAPGKEREFVAAIRGRGGNTYADSVKGRFTISRDNAKNTVYLQMNSVKPEDTAVYSCAAPLLRDLRSPYSYNYWGQGTQVTVSS | low polyreactivity
QVQHVESGGGLVQAGGSLRLSCAASGSTFKHNAMGWSRQAPGKERELVAGISWGGSSTYYADSVKGRFTISRDKAKNTVYLQMNSLKPEDTAVYYCAKGGYRRYGYDYWGQGTQVTVSS | low polyreactivity
QVQHVESGGGLVQAGGSLRLSCAASGSTFQMYAMGWYRQAPGKEMELVASISWSGGSTYYAVSVMGRFTISRDNAKNTFYLQMNSLKPEDTAVYYCKADFWWRYRPGAVFRSYGYWGQGTQVTVSS | low polyreactivity
QVQHVESGGGLVQAGGSLRLSCAASGSTFSHYAMGWYRQAPGKERELVASINSAGSTNYADSVKGRFTISRDNAKNTVYLQMNSLKPEDTAVYYCNTEVQVYSYNYWGQGTQVTVSS | low polyreactivity
QVQHVESGGGLVQAGGSLRLSCAASGSTFYENAMGWYRQAPGKERELGAGIRSTGRTYYADSVKGRFTISRDNAKNTVYIQMNSLKPEDTAVYYCAAYVGTYGEYDYWGQGTQVTVSS | low polyreactivity
QVQHVESGGGLVQAGGSLRLSCAASGSTIQNNAMGWYRQPPGKERELVAAMNNGGSTNYADSVKGRFTISRDNAKNTVYLQMNSLIPEDSAGYYCNTDRHHADYQWGWPSAFEEFGYWGLGTQVTVSS | low polyreactivity
QVQHVESGGGLVQAGGSLRLSCAASGSTLSSYAMGWSRQAPGKERELVAAINSSGGRTYYADSVKGRFTISRDNAKNTVYLKMNSVKPEDTEVYYCAATRGRYREDEDYWGQGTQVTVSS | high polyreactivity
QVQHVESGGGLVQAGGSLRLSCAASGSTSYPYAMGWYRQAPGKERELVATITSGGRTNYADSVKGRFTISRDNAKNTVYLQMNSLKPEDTAVYYCNARFYRWRSYGYDYWGQGTQVTVSS | high polyreactivity
QVQHVESGGGLVQAGGSLRLSCAASGTTFYFYAMGWYRQAPGKERELVAAITYSGGSTYYADSVKGRFTISRDNAKNTVYLQMNSLKPEDTAVYYCAAQWRRHSTRSRYYYWGQGTQVTVSS | high polyreactivity
QVQHVESGGGLVQAGGSLRLSCAASGVIIIGNAVGWYREAPVKEWEFVASIRGVGSTNYADSVKGRFTISRDNAKNTVYVQMNSLKPADSAVYYCATSVDRALYTQTRGDYEYWGQGTQVTVSS | low polyreactivity
QVQHVESGGGLVQAGGSLRLSCAASGYTFTINTMGWYRQAPGKERELVAAITWRGGSTYYADSVKGRFTISRDNAKNTVYLQMNSLKPEDSAVYYCNKDYYITTTTFDYWGQGTQVTVSS | low polyreactivity
QVQHVESGGGLVQAGGSLRLSCAATGRTFRHYAMGWYRLAPGKERELVAAISGSGGRTYYADSVKGRFTISRDNAKNTVYLQMISLKPEDTAVYYCNAYTWTYGEYEYWGQGTQVTVSS | high polyreactivity
QVQHVESGGGLVQAGGSLRLSCAAYGSIFGWYGMGWYRQAPGKERELVAAITRGGSTYYADSVKGRFTISRDNAKNTVYLQMISLKPEDTAVYYCAKRSGQQYGGYGYWGQGTHVTVSS | low polyreactivity
QVQHVESGGGLVQAGGSLRLSCAAYGSTFGVNAMGWYRQAPGKEREFVAAITWSSTSTYYADSVKGRFTISRDNAKNTVYLQMNSLKPEDTAVYYCAARQRIYRHYAYGYWGQGTQLTVSS | high polyreactivity
QVQHVESGGGLVQAGGSLRLSCASSGSIFYFYAKGWYRQAPGKERELVAAISWSGGSTYYADSVKGRFTISRDNAKNTFYLQMNSLKPEDTAVYYCNAADYWYWENDYWGQGTQVTVSS | low polyreactivity
QVQHVESGGGLVQAGGSLRLSCASSGSTSGIHAMGWYRQAPGKDRELVAAIRLSGGRTYYADSVKGRFTISRDNAKNTVYLQMNSLKPEDTAVYFCNALYRQARIRATYDYWGQGTQVSVSS | high polyreactivity

Sequence | polyreactivity (PSR sort gate)
QVQHVESGGGLVQAGGSLRLSCSASGFTFYSYAMGWYRQAPGTERELLAVISKRGGSTRYADSVKGRFTISRDNAKNSVYFQMNSLKPEDTAVYYCNADQHSMTYNEFDYWGQGTQVTVSS | low polyreactivity
QVQHVESGGGLVQAGGSLRLSSAPSGRTFAYYARGWYRQAPGKERELVAAISNGGSTYYADSVKGRFTISRDNAKNTVFLQMNSLKPEDTAVYFCNAYYSDLYDYWGQGTQVTVSS | low polyreactivity
QVQHVESGGGLVQAGGSLRLTCAASGITFYRYAMGWYRQATGKEREFVAAINYGGSSTRYADSVKGRFTISLDNAKNSVYLQMNSLKPEDTAVYYCAVEKRYPRRRYDYWGQGTQVTVSS | low polyreactivity
QVQHVESGGGLVQAGGSLRLTCAASGSTFVNYAMGWYRQAPGKERELVAAITANGGRTYYADSVKGRFTISRDNAKNTVYLQMNSLKPEDTAVYYCNTESNLYRRRRNYWGQGTQVTVSS | low polyreactivity
QVQHVESGGGLVQAGGSLRLTCAASGTIFRYYTMRWYRQAPGKERELVASISRGGNTYYADSVKGRFTISRENAKNTVYLPMNSLKPEDTAVSYCAALPGSFFQAHFYYWGQGTQVTVSS | low polyreactivity
QVQHVESGGGLVQAGGTLRLSCAASGSTFLINTMGWYRQAPGKERELVAAISRSGGRTYYADSVKGRFTISRDNAKNTVYLQMNSLKPEDTAVYYCAAAYVYSNSYAFGSELYSWGQGTQVTVSS | high polyreactivity
QVQHVESGGGLVQAGVSLRLSCAASGSIFPYNAMGWYRQAPGKERELVATISSGGSTNYADSVKGRFTISRDNAKNTVYLQMNSLKPEDTAVYYCAGDVIVFYYAPNYWGDIEYGYWGQGTQVTVSS | low polyreactivity
QVQHVESGGGLVQAVGSLRLSCAASGRTFNNYAMGWYRQAPGKERELVAAISWRSDSTYYADSVMGRFTISRDNAKNTVYLQMNSLKPEDTAVYYCAASQYPLFWYDYWGQGTQVTVSS | low polyreactivity
QVQHVESGGGLVQEGGSLRLICSASGIIFSWYAMGWYRQAPGKERELVATISGGGGSTYYADSVKGRFTISRENAKNTVYLQMNRLKPEDTAVYYCAADYWNFNWRYKLYRPYDYWGQGTQVTVSS | high polyreactivity
QVQHVESGGGLVQEGGSLRLSCGASGRTFSYYAMGCYRQPPGKEREMVAAIRATGTTTYYAVSVKGRFTISRDNAKITFYFQMNSLKQDDTAVYYCAARGSRYRSSGYEEWGQGTQVTVSS | high polyreactivity
QVQHVESGGGLVQSGGSLRLSCAASGRIFDYNAMGWSRQAPGKERELVAAITSSSGSSTYYADSVKGRFTISRDNAKNTVYLQMNSLIPVDTAVYYCNAGGSDIYLSPFDYWGQGTQVTVSS | low polyreactivity
QVQHVESGGGVVQAGGSLRFSCAASGRIFYRYAMGWYRPAPGKERELVAAITIGGRTNYADSVKGRFTISRDNAKTTVYLQMNSLKPEDTAVYYCAVVLYTRYPPRVRYYYWGQGTQVTVSS | high polyreactivity
QVQHVESGRGLVQAGGSLRLSCAASGRIFNPYAMGRYRQAPGKERELVAAISRGGRTYYADSVKGRFTISRDNAKNTVYLQMNSLKPEDTAVYYCNAGRGLREDDYWGQGTQVTVSS | low polyreactivity
QVQHVESLGGLVQAGGSLRLSCAASGRTFFGYAMGWYRQEPGKERELVAAISSGGRTYFADSVKGRFTMSRDNAKNTVFLQMNSLKPEDTAVYYCAAQYSARYYYWGLGTQVTVSS | high polyreactivity
QVQHVESRGGLVQAGGSLRLSCAASGFTFSRNAMGRYRQAPGKESDLVAAIDSGGSTDYADSVKGRFTNSRDNAKNTVYLQMNSLKPADTAVYYCAKASSATRYVQLRQDYDYWGQGTKVTVSS | low polyreactivity
QVQHVESRGGLVQAGGSLRLSCAASGRIFGTYGMGRYRQAPGKERELVAAINWRGGSTYYADSVKGRFTISRDNAKNTVYLQMNSLIPEDTAVYYCNARLYRKRLGYWGQGTQVTVSS | high polyreactivity
QVQHVESRGGLVQAGGSLRLSCAASGSIFNPYDMGWYRPATGKDRELVAAIDWSGGSTYYADSVKGRFTISRDNAKNTVYLQMNSLKPEDSAVYYCAAGYGGWAWNHVSYGGDYWGQGTQVTVSS | low polyreactivity
QVQHVESRGGLVQAGGSLRLSCAASGSIFSANAMGWYRQAPGKVRELVAAITRGGSTNYADSVKGRFTISRDNAKNTVYLQMNSLKPEDTAVYYCNAEPDPYSSGRVRRDYDYWGQGTQVTVSS | low polyreactivity
QVQHVESRGGLVQAGGSLRLSCAASGSTIGFYAMGWYRQAPGKERELVAGITNGGRTYYADSVKGRFTISRDNAKNTVYLQMISLKPEDTAVYYCIRTPRSKGNYWGQGTQVTVSS | high polyreactivity
QVQHVESVGGLVQAGGSLRLSCAPSGSIFWDNAMGWYRQAPGKERELVAAITSSGDTTYYADSVKGRFTISRDNAKNTVYLQMNSLKQEDTAVYYCAKVFGPTDYLTGTFKGDYWGQGTQVTVSS | low polyreactivity
QVQHVESVVGFVQAGASLRLSCASSVLILAQNTMGWYRQAPGKERELVAAISWRGGNTYYADSVKGRLTISRDNAKNTVYLKMNILKPEDTAVDYCAARRPRRIVDYDYWGQGTQVTVSS | high polyreactivity
